The values that follow are results of earlier work, collected in paper PMC7589189.

Where two headings read alike, the source gives them in different places.

One data set addresses ActRIIA (Homo sapiens) (UniProt P27037).
In another data set the target is ALK1-Fc (Homo sapiens) (UniProt P37023). The experiment in a line: SPR.
Data set [1] deals with TβRII (Homo sapiens) (UniProt P37173).
Data set [2] shares this target. This is another data set of the same source.
Data set [3] shares this target. The source holds these as a separate data set.

TβRII (Homo sapiens), sequence (P37173 23-166): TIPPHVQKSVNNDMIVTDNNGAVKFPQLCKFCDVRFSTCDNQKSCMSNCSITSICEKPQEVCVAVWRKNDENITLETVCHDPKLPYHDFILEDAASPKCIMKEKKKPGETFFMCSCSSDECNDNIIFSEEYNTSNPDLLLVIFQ
ALK1-Fc (Homo sapiens), sequence (P37023 22-118): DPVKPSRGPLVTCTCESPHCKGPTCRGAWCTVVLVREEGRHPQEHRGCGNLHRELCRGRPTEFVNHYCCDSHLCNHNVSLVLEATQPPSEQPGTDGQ
TGF-β1, sequence (P01137 279-390): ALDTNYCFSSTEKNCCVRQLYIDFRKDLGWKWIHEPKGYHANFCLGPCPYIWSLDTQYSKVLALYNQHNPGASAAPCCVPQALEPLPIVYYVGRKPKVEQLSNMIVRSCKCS
BMP-7, sequence (P18075 293-431): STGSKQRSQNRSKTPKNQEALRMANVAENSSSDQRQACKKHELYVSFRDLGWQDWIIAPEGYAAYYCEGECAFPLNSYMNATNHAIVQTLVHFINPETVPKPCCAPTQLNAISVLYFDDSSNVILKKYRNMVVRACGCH
ActRIIA (Homo sapiens), sequence (P27037 20-135): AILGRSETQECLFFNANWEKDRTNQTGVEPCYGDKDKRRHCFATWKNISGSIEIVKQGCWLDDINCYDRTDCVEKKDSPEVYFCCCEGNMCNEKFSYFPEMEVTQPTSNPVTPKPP
BMP-9, sequence (Q9UK05 320-429): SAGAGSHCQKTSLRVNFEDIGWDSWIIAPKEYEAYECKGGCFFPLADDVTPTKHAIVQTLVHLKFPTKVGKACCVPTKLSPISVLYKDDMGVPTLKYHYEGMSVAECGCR
pro-BMP-9, sequence (Q9UK05 320-429): as above
TGF-β3, sequence (P10600 301-412): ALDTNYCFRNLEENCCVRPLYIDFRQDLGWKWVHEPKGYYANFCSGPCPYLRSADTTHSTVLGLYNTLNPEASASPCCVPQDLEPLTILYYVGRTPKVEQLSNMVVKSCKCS
TGF-β2, sequence (P61812 303-414): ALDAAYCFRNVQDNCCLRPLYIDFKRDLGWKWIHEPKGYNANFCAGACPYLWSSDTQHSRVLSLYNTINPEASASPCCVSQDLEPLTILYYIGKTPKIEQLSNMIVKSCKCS

For orientation: Kd means the free concentration of one partner at which half of the binding sites on the other are occupied at equilibrium, for simple one-to-one binding. With BMP-7 (from UniProt P18075), the Kd in the data set with ActRIIA (Homo sapiens) was 8000 pM.

Take BMP-9 (from UniProt Q9UK05): the Kd with ALK1-Fc (Homo sapiens) is 48 pM.

Take TGF-β1 (from UniProt P01137): in the data set with TβRII (Homo sapiens) [1], the Kd was 200 pM.

On to TGF-β2 (from UniProt P61812), for which the Kd with TβRII (Homo sapiens) [2] is over 10000 pM.

As for TGF-β3 (from UniProt P10600), the Kd in the data set with TβRII (Homo sapiens) [3] was 500 pM.

With pro-BMP-9 (from UniProt Q9UK05), the Kd with ALK1-Fc (Homo sapiens) was 61 pM.
